Publication PMC8018780, “Two peptides targeting endothelial receptors are internalized into murine brain endothelial cells” (PLoS ONE, 2021)
Ends that are not written are not given here. Peptide text beside a SMILES is read from it. * marks the point of attachment. 5TAMRA = CN(C)c1ccc2c(c1)Oc1cc(N(C)C)ccc1C21OC(=O)c2cc(C(=O)*)ccc21

Columns and labels:
bEnd.3 cells = test: Translocation study based on fluorescence intensity measurement (Transwell, non-contact co-culture with rat astrocytes); format: in vitro ADME, mouse; conditions: for Pe ("real" endothelial permeability): 1/Pe = 1/Papp,bEnd.3+filter − 1/Papp,filter, fluorescence; for Papp,F (apparent permeability through filter): cell-free collagen-coated polyester Transwell filter, 0.4 μm pores, fluorescence Ex 535/Em 585 nm
Description: (§1) For the translocation studies, an in vitro contact and non-contact co-culture model was used. Forty thousand bEnd.3 cells were seeded on the upper side of the collagen-coated Transwell insert and maintained in cDMEM for 24 hours (contact co-culture) or immediately transferred into a 12-well plate in which rat astrocytes were grown for at least three weeks (non-contact co-culture). In the case of contact co-culture, 24 hours after plating the bEnd.3 approx. 150,000 rat astrocytes were seeded on the bottom side of the flipped Transwell inserts, which was coated with 5 μg/ml poly-L-lysine (P1524, Sigma-Aldrich), and incubated for 2 hours at 37°C. The inserts were then flipped back to the original side and placed into a 12-well plate with rat astrocytes. The cells were cultured in cDMEM at 37°C with 5% CO2/95% air and saturated humidity, and the experiments were performed 4.5–5 days post-seeding of bEnd.3 cells. The medium was switched to phenol red-free cDMEM the day before the experiment.
(§2) These experiments were performed using the bEnd.3 cells that were cultured with rat astrocytes in a non-contact co-culture model and with cell-free filters as negative controls. On the day of the experiment, the inserts were transferred to a new astrocyte-free 12-well plate, and the medium was changed on both the apical and basolateral sides. The apical side of the membrane was exposed to 10 μM MTfp or GYR for 2 hours while the plates were gently shaken to overcome unstirred water-layer effects. After the 2 hours exposure time, 150 μL sample was taken from both apical and basolateral compartments, and the fluorescence intensity was read by a CLARIOstar® Plus microplate reader (BMG Labtech) (λExc = 535 nm, λEm = 585 nm, Bandwidth = 20 and 30 nm, respectively). The translocation of the peptides is presented as permeability coefficient (a concentration independent transport parameter) and was determine by using the clearance principle.
(§3) The following equations [27] were used to calculate the permeability coefficient: Papp[cm/s]=B/T⋅vb/A⋅t⋅60 (1) Where Papp is the apparent permeability, B is the relative fluorescence unit (RFU) at time t, T is the top chamber RFU at time 0 (constant), Vb is the volume of the bottom channel [ml], A is the cross-section area of the membrane [cm^2], and t is the time [min].
(§4) The translocation experiments were performed three times in technical triplicates, and the data are represented as mean (SD).

[1] = as above; format: in vitro ADME, mouse; conditions: mouse; bEnd.3 non-contact co-culture with rat astrocytes, polyester Transwell 0.4 μm; 10 μM apical, 2 h, shaken, apical to basolateral; fluorescence (RFU values) Ex 535/Em 585 nm; mean (SD) of three independent experiments with triplicates; read-out: Papp, bEnd.3+F (apparent permeability through bEnd.3 grown on filter)
Description: as §1, §2, §3, §4

[2] = target: T1, LRP-1 purified from human placenta (Homo sapiens, UniProt Q07954); test: SPR binding to immobilized LRP-1 (Biacore 3000, CM5 chip); conditions: unlabeled peptide, 0.25-4 μM, 5 μL/min, 25°C, HEPES buffer pH 7.4, Langmuir 1:1 global fit
T1 construct: LRP-1 was purified from human placenta according to a previously described protocol; from tissue; host or cells: human placenta
Description: (§5) The binding affinity analysis of the MTf and GYR peptides was performed using the Biacore 3000 system (Cytiva, UK) equipped with a CM5 sensor chip. The sensor chip was initially activated by injection of 0.2 M 1-ethyl-3-(3-dimethylaminopropyl) carbodiimide hydrochloride and 0.05 M N-hydroxysuccinimide in water. Recombinant human and mouse TfR protein (SinoBiological, Inc., Beijing, PRC) was purchased with a His-tag and immobilized on the sensor chip at 58 fmol/mm^2. LRP-1 was purified from human placenta according to a previously described protocol and immobilized to densities of 0.025 fmol/mm^2. The remaining carboxylate groups were blocked with 1 M ethanolamine. The MTf and GYR peptides were injected for binding to the immobilized TfR or LRP-1 protein at 5 μL/min at 25°C in 10 mM HEPES, 150 mM NaCl, 1.5 mM CaCl2, 1 mM EGTA, and 0.005% Tween 20 (pH 7.4) at five different concentrations (0.25 μM, 0.5 μM, 1 μM, 2 μM and 4 μM). The reference flow channel (FC1) was activated and blocked but without immobilized TfR or LRP-1. The dissociation constant (KD) values were calculated using the BIAevaluation 4.1 software (Cytiva, UK) using the predefined Langmuir 1:1 interaction model and fitted using a drifting baseline with global fitting to the curves of the considered concentration range.

[3] = target: T2, Recombinant mouse TfR protein (mTfR) (Mus musculus, UniProt Q62351); test: SPR binding to immobilized mouse TfR (Biacore 3000, CM5 chip); conditions: unlabeled peptide, 0.25-4 μM, 25°C, pH 7.4, Langmuir 1:1 global fit
T2 construct: His-tag; purchased SinoBiological, Inc., Beijing, PRC
Description: as §5

[4] = 10 μM apical, 2 h, mean (SD) of three independent experiments with triplicates
[5] = alternative calculation, 10 μM apical, 120 min
[6] = 10 μM apical, 2 h, shaken, apical to basolateral, mean (SD) of three independent experiments with triplicates

T1 sequence (Q07954 20-4544): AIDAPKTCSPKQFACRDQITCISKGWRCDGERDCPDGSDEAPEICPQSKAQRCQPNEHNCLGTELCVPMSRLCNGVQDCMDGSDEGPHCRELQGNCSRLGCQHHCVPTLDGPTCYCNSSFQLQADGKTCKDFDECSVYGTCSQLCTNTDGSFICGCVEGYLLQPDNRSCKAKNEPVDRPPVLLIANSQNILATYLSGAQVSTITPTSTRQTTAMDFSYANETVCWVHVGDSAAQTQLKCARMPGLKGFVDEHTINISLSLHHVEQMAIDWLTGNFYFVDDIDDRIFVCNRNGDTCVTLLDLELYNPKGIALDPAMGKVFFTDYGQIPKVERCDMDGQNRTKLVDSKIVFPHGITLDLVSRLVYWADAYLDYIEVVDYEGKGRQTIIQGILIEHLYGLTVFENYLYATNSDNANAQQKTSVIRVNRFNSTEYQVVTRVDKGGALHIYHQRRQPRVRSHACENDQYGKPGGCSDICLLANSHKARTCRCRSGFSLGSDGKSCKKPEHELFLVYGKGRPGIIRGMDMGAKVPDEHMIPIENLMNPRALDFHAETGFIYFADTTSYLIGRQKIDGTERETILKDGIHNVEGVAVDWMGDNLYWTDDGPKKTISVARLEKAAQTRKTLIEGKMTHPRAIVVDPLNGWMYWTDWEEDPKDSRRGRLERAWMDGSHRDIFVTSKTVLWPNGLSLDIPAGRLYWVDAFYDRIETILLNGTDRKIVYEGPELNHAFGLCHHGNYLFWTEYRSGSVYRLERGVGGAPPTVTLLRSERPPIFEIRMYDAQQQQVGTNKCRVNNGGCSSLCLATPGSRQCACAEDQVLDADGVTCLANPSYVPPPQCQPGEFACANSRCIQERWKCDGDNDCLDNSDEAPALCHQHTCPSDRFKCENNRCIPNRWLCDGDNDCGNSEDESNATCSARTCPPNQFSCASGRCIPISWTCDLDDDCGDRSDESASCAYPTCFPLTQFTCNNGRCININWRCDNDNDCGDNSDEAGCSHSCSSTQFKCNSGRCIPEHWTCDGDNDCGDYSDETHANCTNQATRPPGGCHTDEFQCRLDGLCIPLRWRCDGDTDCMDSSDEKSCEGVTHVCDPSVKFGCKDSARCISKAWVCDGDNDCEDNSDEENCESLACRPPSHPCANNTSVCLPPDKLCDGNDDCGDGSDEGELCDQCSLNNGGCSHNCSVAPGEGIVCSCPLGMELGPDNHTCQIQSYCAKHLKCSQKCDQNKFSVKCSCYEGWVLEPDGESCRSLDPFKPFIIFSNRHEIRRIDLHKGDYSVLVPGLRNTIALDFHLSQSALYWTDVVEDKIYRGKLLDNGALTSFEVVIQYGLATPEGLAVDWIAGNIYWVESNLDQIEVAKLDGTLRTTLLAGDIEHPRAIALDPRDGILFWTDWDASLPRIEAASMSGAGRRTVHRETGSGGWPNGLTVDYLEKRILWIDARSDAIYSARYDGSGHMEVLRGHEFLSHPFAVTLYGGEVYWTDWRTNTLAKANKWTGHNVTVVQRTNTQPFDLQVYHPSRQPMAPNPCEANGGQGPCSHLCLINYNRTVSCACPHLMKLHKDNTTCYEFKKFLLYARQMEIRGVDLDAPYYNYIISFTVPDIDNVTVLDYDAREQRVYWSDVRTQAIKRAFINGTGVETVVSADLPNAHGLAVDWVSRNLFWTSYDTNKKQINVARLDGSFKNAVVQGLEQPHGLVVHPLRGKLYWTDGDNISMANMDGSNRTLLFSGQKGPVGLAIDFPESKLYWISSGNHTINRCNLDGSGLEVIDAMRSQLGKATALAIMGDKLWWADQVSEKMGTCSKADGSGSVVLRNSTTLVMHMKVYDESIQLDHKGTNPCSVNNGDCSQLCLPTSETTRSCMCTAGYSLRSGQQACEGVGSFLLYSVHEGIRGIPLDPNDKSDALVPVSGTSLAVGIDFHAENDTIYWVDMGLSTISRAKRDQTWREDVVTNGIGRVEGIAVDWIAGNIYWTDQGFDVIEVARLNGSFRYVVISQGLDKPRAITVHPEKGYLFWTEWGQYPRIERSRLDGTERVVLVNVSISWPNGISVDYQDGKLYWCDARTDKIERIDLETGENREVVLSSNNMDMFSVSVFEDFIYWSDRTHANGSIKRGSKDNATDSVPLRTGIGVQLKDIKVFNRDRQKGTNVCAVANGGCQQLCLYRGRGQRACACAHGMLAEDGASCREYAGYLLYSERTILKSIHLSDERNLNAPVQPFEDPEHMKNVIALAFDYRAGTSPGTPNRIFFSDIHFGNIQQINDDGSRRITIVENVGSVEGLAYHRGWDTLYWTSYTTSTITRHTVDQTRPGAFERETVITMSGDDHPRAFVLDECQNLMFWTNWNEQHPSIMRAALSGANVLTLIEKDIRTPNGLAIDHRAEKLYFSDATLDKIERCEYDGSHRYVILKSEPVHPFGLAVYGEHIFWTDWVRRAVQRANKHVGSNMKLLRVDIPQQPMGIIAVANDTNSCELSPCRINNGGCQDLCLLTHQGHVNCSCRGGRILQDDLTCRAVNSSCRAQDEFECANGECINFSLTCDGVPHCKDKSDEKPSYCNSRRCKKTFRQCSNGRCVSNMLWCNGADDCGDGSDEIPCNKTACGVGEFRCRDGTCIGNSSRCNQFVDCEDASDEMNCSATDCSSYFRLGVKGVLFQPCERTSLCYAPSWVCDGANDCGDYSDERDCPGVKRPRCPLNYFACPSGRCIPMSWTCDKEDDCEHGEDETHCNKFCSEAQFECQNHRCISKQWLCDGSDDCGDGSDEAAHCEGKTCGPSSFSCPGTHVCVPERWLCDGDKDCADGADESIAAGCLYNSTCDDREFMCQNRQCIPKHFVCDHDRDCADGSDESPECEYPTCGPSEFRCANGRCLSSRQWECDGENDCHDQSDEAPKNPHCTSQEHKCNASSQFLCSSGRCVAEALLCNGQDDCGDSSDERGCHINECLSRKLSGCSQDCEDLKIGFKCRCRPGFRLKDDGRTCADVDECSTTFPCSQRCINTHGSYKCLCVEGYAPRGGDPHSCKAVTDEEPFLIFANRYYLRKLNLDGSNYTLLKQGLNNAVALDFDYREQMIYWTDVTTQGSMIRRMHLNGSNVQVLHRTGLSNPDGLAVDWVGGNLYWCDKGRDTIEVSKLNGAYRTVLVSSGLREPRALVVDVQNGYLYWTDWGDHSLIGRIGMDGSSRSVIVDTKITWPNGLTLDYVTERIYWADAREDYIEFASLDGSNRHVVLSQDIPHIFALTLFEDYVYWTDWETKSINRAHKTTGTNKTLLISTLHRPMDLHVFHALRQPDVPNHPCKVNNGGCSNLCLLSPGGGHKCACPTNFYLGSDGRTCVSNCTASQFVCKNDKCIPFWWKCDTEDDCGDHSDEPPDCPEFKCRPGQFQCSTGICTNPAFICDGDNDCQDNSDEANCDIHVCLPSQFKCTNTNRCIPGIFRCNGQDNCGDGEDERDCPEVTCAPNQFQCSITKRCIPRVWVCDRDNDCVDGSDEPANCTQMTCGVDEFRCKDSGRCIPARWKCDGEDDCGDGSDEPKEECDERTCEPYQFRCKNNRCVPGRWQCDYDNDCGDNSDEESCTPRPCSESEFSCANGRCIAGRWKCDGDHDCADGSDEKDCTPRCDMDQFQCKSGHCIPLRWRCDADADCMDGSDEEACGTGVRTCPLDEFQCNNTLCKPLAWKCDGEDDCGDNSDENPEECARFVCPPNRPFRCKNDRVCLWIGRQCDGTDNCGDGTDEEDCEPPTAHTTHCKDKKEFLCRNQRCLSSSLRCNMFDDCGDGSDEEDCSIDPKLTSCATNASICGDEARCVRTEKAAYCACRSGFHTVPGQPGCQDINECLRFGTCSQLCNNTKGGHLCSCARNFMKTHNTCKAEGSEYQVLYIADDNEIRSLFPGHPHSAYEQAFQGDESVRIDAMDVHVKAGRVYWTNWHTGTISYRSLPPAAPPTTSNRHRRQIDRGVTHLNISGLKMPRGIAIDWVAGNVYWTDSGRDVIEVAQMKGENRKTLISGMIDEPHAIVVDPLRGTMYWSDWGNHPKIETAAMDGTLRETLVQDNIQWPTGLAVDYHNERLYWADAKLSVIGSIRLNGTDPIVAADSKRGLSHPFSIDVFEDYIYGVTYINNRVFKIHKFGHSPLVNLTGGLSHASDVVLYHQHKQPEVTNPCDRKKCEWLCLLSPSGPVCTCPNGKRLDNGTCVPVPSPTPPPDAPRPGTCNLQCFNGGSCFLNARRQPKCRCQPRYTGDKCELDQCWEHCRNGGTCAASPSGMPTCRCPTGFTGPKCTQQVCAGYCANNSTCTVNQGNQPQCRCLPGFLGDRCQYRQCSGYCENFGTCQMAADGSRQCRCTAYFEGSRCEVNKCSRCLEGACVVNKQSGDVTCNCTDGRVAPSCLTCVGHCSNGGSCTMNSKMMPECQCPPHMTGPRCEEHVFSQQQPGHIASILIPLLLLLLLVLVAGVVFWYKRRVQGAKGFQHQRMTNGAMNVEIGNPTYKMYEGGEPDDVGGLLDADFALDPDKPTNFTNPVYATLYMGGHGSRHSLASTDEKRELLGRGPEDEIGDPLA

| Kd [2] [µM] | Compound | Pe ("real" endothelial permeability) (bEnd.3 cells; [4]) | Papp,F (apparent permeability through filter) (bEnd.3 cells; [6]) | also measured |
| --- | --- | --- | --- | --- |
|  | CC[C@H](C)[C@H](NC(=O)[C@H](CC(N)=O)NC(=O)[C@H](Cc1c[nH]cn1)NC(=O)[C@@H](NC(=O)[C@@H]1CCCN1C(=O)[C@H](CCCNC(=N)N)NC(=O)[C@H](Cc1ccc(O)cc1)NC(=O)CN)C(C)C)C(=O)N[C@@H](CCCNC(=N)N)C(=O)NCC(=O)N[C@@H](Cc1c[nH]cn1)C(=O)N[C@@H](Cc1c[nH]c2ccccc12)C(=O)N[C@@H](C)C(=O)N1CCC[C@H]1C(=O)NCC(=O)N[C@@H](CCCCNC(=O)c1ccc2c(c1)C(=O)OC21c2ccc(N(C)C)cc2Oc2cc(N(C)C)ccc21)C(N)=O [GYR-TAMRA] (H-GYRPVHNIRGHWAPGK(5TAMRA)-NH2) | 15.17 (1.83) x 10^−6 cm/s | 12.82 (3.11) x 10^−6 cm/s | Papp (bEnd.3 + filter), calculated concentrations based on a standard curve (bEnd.3 cells; [5]): 6.71 ×10⁻⁶ cm/s; Papp (bEnd.3 + filter), calculated final basal concentration and the 10 µM initial apical concentration (bEnd.3 cells; [5]): 6.31 ×10⁻⁶ cm/s; Papp, bEnd.3+F (apparent permeability through bEnd.3 grown on filter) (bEnd.3 cells; bEnd.3 non-contact co-culture with rat astrocytes, polyester Transwell 0.4 μm, 10 μM apical, 2 h, shaken, apical to basolateral, fluorescence (RFU values) Ex 535/Em 585 nm, mean (SD) of three independent experiments with triplicates): 6.64 (1.16) x 10^−6 cm/s |
|  | CC[C@H](C)[C@H](NC(=O)[C@H](CCCNC(=N)N)NC(=O)[C@@H](NC(=O)[C@@H](NC(=O)[C@H](Cc1ccccc1)NC(=O)[C@@H]1CCCN1C(=O)[C@@H](NC(=O)[C@H](CC(=O)O)NC(=O)CNC(=O)[C@H](CCCNC(=N)N)NC(=O)[C@H](CC(N)=O)NC(=O)[C@H](CCC(=O)O)NC(=O)[C@@H](NC(=O)[C@H](CC(C)C)NC(=O)[C@H](CS)NC(=O)[C@H](CCCNC(=N)N)NC(=O)[C@H](Cc1ccccc1)NC(=O)c1ccc2c(c1)C(=O)OC21c2ccc(N(C)C)cc2Oc2cc(N(C)C)ccc21)C(C)C)C(C)C)C(C)C)[C@@H](C)O)C(=O)N[C@@H](CCCNC(=N)N)C(N)=O [MTfp-TAMRA] (5TAMRA-FRCLVENRGDVPFVTRIR-NH2) | 4.57 (0.64) x 10^−6 cm/s | 5.86 (1.27) x 10^−6 cm/s | Papp A→B at 2 h, 10 µM [1]: 2.55 ×10⁻⁶ cm/s |
| 0.00057 | FRCLVENRGDVPFVTRIR-NH2 [MTfp] |  |  |  |
| 0.1 | GYRPVHNIRGHWAPGK-NH2 [GYR] |  |  | Kd [3]: 1000 µM; Remaining peptide most likely trapped inside the filter membrane or in the endothelial cell layer (bEnd.3 cells; 100% minus collected): 1.7% |
